1 substance from US20230399385A1 can be followed below.

This test addresses SARS-CoV-2 spike (S) glycoprotein, wild-type, on pseudotyped virus (SARS-CoV-2) (UniProt P0DTC2). As to the kind of experiment: cell-based or functional assay.

Sequence of JS016 (antibody) (VH): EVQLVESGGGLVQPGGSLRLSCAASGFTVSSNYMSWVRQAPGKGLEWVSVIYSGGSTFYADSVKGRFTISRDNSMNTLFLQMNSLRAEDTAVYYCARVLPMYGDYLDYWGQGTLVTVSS
Sequence of JS016 (antibody) (VL): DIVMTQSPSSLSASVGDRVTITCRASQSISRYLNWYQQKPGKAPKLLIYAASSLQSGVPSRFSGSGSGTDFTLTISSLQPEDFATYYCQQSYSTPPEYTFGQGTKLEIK

For JS016 (antibody), the IC50, pseudovirus neutralization study against wild-type SARS-CoV-2 is 0.0631 µg/mL.
